Assay results taken from article PMC6374351, “The Fusion Activity of IM30 Rings Involves Controlled Unmasking of the Fusogenic Core” (Frontiers in Plant Science, 2019).

What was measured:
Assay in all cases: SEC; Superdex 200 HR 16/60 GL, 4°C, 0.5 mL/min, 20 mM HEPES pH 7.6; apparent masses from Kav against marker proteins; apparent oligomeric state = extrapolated mass / calculated monomer mass (with His-tag)
[1] = biological target: IM30 α1-3 (helices 1-3) (Synechocystis sp. PCC 6803)
[2] = biological target: IM30 α1-4 (helices 1-4) (Synechocystis sp. PCC 6803)
[3] = biological target: the molecule itself

For “IM30 α1-3 (helices 1-3) (domain or fragment)”, which stoichiometry N [1] is on record?
The stoichiometry N was 1.76.

Which stoichiometry N [2] does the source give for “IM30 α1-4 (helices 1-4) (domain or fragment)” here?
Its stoichiometry N is 2.2.

B1: inner membrane-associated protein of 30 kDa (IM30) wt, Synechocystis sp. PCC 6803 (natural protein, UniProt Q55707 1-267, looked up)
chain: MGLFDRLGRVVRANLNDLVSKAEDPEKVLEQAVIDMQEDLVQLRQAVARTIAEEKRTEQRLNQDTQEAKKWEDRAKLALTNGEENLAREALARKKSLTDTAAAYQTQLAQQRTMSENLRRNLAALEAKISEAKTKKNMLQARAKAAKANAELQQTLGGLGTSSATSAFERMENKVLDMEATSQAAGELAGFGIENQFAQLEASSGVEDELAALKASMAGGALPGTSAATPQLEAAPVDSSVPANNASQDDAVIDQELDDLRRRLNNL
notes: IM30 (Vipp1) of the cyanobacterium Synechocystis sp; PCC 6803, wild type, helices 1-7; the last residue is 267 (α4-7 = amino acids 147-267); Forms rings of variable size; also called Vipp1; full-length protein; source: heterologously expressed and purified (as in Fuhrmann et al., 2009a)
Does B1 bind [3]?
Result: binds
